Residue numbers refer to the chain shown, from its start.
T1: FGFR1 (Table 1) (UniProt P11362 22-376, limits assumed)
T1 construct: the construct is not described
T1 sequence (looked up): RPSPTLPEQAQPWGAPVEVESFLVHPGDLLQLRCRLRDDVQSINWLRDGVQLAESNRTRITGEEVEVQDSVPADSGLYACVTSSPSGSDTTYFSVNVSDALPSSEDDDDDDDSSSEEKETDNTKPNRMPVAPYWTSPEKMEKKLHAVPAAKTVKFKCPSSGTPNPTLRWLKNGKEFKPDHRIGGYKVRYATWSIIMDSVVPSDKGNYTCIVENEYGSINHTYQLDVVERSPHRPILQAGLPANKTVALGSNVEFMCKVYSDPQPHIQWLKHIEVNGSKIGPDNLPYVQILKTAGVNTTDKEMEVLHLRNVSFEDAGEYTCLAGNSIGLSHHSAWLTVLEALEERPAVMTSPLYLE

B1: PRO-021 (Fab, V domains shown)
VH: QVQLVQSGAEVKKPGSSVKVSCKASGGTFSSYAISWVRQAPGQGLEWMGGIIPIFGTANYAQKFQGRVTITADESTSTAYMELSSLRSEDTAVYYCARDNWFKPFSDVWGQGTLVTVSS
VL: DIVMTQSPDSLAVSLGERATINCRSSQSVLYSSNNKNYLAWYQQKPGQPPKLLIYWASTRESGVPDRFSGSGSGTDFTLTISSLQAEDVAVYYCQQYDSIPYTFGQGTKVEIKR
notes: HuCAL clone; the IC50 may be of the Fab-dHLX format
B2: PRO-029 (Fab, V domains shown)
VH: QVQLVQSGAEVKKPGASVKVSCKASGYTFTSYYMHWVRQAPGQGLEWMGWINPNSGGTNYAQKFQGRVTMTRDTSISTAYMELSSLRSEDTAVYYCARTWQYSYFYYLDGGYYFDIWGQGTLVTVSS
VL: DIVLTQSPATLSLSPGERATLSCRASQSVSSSYLAWYQQKPGQAPRLLIYGASSRATGVPARFSGSGSGTDFTLTISSLEPEDFATYYCQQTNNAPVTFGQGTKVEIKR
notes: HuCAL clone
B3: PRO-026 (Fab, V domains shown)
VH: QVQLVQSGAEVKKPGASVKVSCKASGYTFTSYYMHWVRQAPGQGLEWMGWINPNSGGTNYAQKFQGRVTMTRDTSISTAYMELSSLRSEDTAVYYCARGYWYAYFTYINYGYFDNWGQGTLVTVSS
VL: DIALTQPASVSGSPGQSITISCTGTSSDVGGYNYVSWYQQHPGKAPKLMIYDVSNRPSGVSNRFSGSKSGNTASLTISGLQAEDEADYYCQSYDNNSDVVFGGGTKLTVLG
notes: HuCAL clone; the VL is headed 'MS-Pro-26-VL'; also called MS-Pro-26
B4: PRO-001 Fab (Fab, V domains shown)
VH: QVQLQQSGPGLVKPSQTLSLTCAISGDSVSSNSAAWNWIRQSPGRGLEWLGRTYYRSKWYNDYAVSVKSRITINPDTSKNQFSLQLNSVTPEDTAVYYCARSYYPDFDYWGQGTLVTVSS
VL: DIELTQPPSVSVAPGQTARISCSGDALGDKYASWYQQKPGQAPVLVIYDDSDRPSGIPERFSGSNSGNTATLTISGTQAEDEADYYCQSYDGPDLWVFGGGTKLTVLG
notes: Human Fab from the HuCAL-Fab-1 library; also called human anti-FGFR3 Fab PRO-001; anti-FGFR3 antibody
B5: PRO-002 (Fab, V domains shown)
VH: QVQLVQSGAEVKKPGASVKVSCKASGYTFTSYYMHWVRQAPGQGLEWMGWINPNSGGTNYAQKFQGRVTMTRDTSISTAYMELSSLRSEDTAVYYCARDFLGYEFDYWGQGTLVTVSS
VL: B4 VL with G92Y, P93S, D94A, L95D, W96Y
notes: as for B1
B6: PRO-012 (Fab, V domains shown)
VH: QVQLKESGPALVKPTQTLTLTCTFSGFSLSTSGVGVGWIRQPPGKALEWLALIDWDDDKYYSTSLKTRLTISKDTSKNQVVLTMTNMDPVDTATYYCARYHSWYEMGYYGSTVGYMFDYWGQGTLVTVSS
VL: DIELTQPPSVSVAPGQTARISCSGDALGDKYASWYQQKPGQAPVLVIYDDSDRPSGIPERFSGSNSGNTATLTISGTQAEDEADYYCQSYDFDFAVFGGGTKLTVLG
notes: as for B1
B7: PRO-054 (Fab, V domains shown)
VH: QVQLVQSGAEVKKPGASVKVSCKASGYTFTSYYMHWVRQAPGQGLEWMGWINPNSGGTNYAQKFQGRVTMTRDTSISTAYMELSSLRSEDTAVYYCARNMAYTNYQYVNMPHFDYWGQGTLVTVSS
VL: B6 VL with F92Y, D93F, F94K, A95L
notes: HuCAL clone
B8: PRO-024 (Fab, V domains shown)
VH: B1 VH with D99V, W101H, F102W, K103T, P104Y, F105T, S106F, V108Y
VL: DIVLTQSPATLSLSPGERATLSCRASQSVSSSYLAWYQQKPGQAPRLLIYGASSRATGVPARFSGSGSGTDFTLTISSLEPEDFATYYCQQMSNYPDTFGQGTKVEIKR
B9: PRO-055 (Fab, V domains shown)
VH: QVQLVQSGAEVKKPGASVKVSCKASGYTFTSYYMHWVRQAPGQGLEWMGWINPNSGGTNYAQKFQGRVTMTRDTSISTAYMELSSLRSEDTAVYYCARSMNSTMYWYLRRVLFDHWGQGTLVTVSS
VL: B3 VL with N95M, N96Y, S97N, D98Y, V99I

Target: T2, wild type FGFR3 expressed on cells (UniProt P22607 23-806, limits assumed)
T2 construct: whole, on cells; the myeloma cell lines and patient cells are human; also called WT FGFR3; B9-FGFR3^WT
Test: FACS

T2 sequence (P22607 23-806 limits assumed): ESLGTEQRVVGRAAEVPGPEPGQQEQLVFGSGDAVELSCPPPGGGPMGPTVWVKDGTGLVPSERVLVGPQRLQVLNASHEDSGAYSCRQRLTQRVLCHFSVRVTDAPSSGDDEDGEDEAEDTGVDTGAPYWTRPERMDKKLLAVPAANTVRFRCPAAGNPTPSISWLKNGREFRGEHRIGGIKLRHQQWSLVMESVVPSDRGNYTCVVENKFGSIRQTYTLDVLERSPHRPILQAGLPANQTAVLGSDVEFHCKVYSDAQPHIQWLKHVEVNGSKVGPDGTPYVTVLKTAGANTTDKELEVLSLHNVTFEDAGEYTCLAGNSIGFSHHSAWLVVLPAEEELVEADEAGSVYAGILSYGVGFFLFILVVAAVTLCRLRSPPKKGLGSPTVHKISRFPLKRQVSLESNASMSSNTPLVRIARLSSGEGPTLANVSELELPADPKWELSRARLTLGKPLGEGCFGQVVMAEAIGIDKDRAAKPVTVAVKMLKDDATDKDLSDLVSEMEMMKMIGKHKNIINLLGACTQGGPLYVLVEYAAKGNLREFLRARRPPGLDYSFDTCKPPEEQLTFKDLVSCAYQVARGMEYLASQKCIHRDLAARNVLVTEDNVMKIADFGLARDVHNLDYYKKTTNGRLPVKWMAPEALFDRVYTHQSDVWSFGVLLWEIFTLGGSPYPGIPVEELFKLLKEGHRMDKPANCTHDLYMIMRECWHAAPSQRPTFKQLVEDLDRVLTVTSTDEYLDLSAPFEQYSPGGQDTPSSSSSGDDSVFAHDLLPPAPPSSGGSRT

Kd [nM]	Binder
1.1	B1
< 1	B2
1.4	B3
0.7	B4
43	B5
6.5	B6

Target: FGFR3-Y373C expressed on B9 cells (UniProt P22607 23-806)
Test: cell-based or functional assay

Chain of FGFR3-Y373C expressed on B9 cells (P22607 23-806 Y373C limits assumed): as the sequence (P22607 23-806 limits assumed) above, with Y351C counted along it

IC50 of FGF-stimulated growth of B9 cells expressing Y373C-FGFR3 [µg/mL]	Binder
~3	B4

Target: FGFR3-F384L expressed on B9 cells (UniProt P22607 23-806)
Test: cell-based or functional assay

Chain of FGFR3-F384L expressed on B9 cells (P22607 23-806 F384L limits assumed): as the sequence (P22607 23-806 limits assumed) above, with F362L counted along it

IC50 of FGF-stimulated growth of B9 cells expressing FGFR3 F384L [µg/mL]	Binder
~3	B4

Target: T2, wild type FGFR3 expressed on cells
Test: cell-based or functional assay

IC50 of FGF stimulated proliferation of FDCP-FGFR3 cells (XTT) [µg/mL]	Binder
0.5	B4

Target: T1, FGFR1 (Table 1)
Test: BIAcore and/or FACS

Kd [nM]	Binder
29	B2
32	B3
2.5	B7

Target: T2, wild type FGFR3 expressed on cells
Test: cell-based or functional assay
Remark: another data set of the same source

IC50 FGFR3 (FGF9), FDCP-FGFR3 proliferation assay (dHLX format) [nM]	Binder
50	B1
70	B8
20	B2
70	B3
34	B9
19	B4
360	B5
58	B6
45	B7

— patent US20090175866A1 (published 2009)
